Results reported in patent US20190387724A1.

Target: human/mouse chimeric PD-1 protein (humanized PD-1 of B-hPD-1 mice) (human/mouse chimeric)
Test: flow cytometry on T lymphocytes (CD3+) of F1 generation B-hPD-1 mice

Sequence of human/mouse chimeric PD-1 protein (humanized PD-1 of B-hPD-1 mice) (human/mouse chimeric) (chain, as listed by the source mutant limits assumed): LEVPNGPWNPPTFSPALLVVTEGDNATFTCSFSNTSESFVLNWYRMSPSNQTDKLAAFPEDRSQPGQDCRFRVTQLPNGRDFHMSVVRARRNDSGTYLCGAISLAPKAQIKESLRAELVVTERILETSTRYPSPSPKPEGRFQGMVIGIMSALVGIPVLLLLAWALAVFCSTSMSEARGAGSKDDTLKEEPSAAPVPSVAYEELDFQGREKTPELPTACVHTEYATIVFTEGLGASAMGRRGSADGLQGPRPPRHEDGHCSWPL

## anti-human PD-1 antibody hPD-1 FITC (Biolegend, article number 329904)
  percent of double-positive cells (anti-human PD-1 and anti-mouse CD3): 92%
